Measured values published in paper PMC2919228 (Molecular cell, 2010).

Target: Skp1-GST/Cdc4-HA (Saccharomyces cerevisiae, UniProt P52286 1-194; P07834 1-779)
Assay: pull-down

Skp1-GST/Cdc4-HA, sequence (P52286 whole entry, chain 1 of 2): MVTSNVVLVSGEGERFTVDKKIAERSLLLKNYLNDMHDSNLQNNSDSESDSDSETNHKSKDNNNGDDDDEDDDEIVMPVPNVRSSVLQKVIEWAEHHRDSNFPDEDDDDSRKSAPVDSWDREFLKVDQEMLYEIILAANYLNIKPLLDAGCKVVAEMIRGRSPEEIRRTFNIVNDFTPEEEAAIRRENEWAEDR
Skp1-GST/Cdc4-HA, sequence (P07834 whole entry, chain 2 of 2): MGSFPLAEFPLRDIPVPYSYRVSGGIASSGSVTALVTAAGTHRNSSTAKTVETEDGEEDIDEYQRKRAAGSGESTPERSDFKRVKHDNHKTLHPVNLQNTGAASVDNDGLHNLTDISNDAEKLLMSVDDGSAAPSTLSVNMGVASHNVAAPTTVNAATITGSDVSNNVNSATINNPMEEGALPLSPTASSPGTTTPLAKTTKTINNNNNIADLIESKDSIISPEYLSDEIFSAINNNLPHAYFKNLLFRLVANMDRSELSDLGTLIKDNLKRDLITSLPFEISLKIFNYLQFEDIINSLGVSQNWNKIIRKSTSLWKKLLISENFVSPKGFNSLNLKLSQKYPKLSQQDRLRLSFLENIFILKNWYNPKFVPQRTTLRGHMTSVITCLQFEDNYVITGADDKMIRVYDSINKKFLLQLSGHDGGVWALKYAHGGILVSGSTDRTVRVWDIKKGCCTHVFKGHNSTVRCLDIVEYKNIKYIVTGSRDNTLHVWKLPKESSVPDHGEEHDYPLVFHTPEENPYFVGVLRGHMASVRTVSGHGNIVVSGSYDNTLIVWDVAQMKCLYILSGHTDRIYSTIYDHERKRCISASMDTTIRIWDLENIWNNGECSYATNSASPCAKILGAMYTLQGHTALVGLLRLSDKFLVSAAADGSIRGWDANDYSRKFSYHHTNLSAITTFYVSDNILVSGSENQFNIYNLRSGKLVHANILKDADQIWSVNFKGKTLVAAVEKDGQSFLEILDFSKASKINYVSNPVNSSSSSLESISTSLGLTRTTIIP

binding result: binds
B1: Gpa1-Flag (natural protein, Saccharomyces cerevisiae, UniProt P08539 1-472, looked up)
chain: MGCTVSTQTIGDESDPFLQNKRANDVIEQSLQLEKQRDKNEIKLLLLGAGESGKSTVLKQLKLLHQGGFSHQERLQYAQVIWADAIQSMKILIIQARKLGIQLDCDDPINNKDLFACKRILLKAKALDYINASVAGGSDFLNDYVLKYSERYETRRRVQSTGRAKAAFDEDGNISNVKSDTDRDAETVTQNEDADRNNSSRINLQDICKDLNQEGDDQMFVRKTSREIQGQNRRNLIHEDIAKAIKQLWNNDKGIKQCFARSNEFQLEGSAAYYFDNIEKFASPNYVCTDEDILKGRIKTTGITETEFNIGSSKFKVLDAGGQRSERKKWIHCFEGITAVLFVLAMSEYDQMLFEDERVNRMHESIMLFDTLLNSKWFKDTPFILFLNKIDLFEEKVKSMPIRKYFPDYQGRVGDAEAGLKYFEKIFLSLNKTNKPIYVKRTCATDTQTMKFVLSAVTDLIIQQNLKKIGII
